Tested on: peptide library, one residue held at a place counted from the S/T acceptor
Assay: relative phosphorylation of the sub-library (ratio to the mean residue at this position); higher = residue favoured
Conditions: human
Summary of the method: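 Human or orthologue kinase constructs, purified and recombinant, were incubated under kinase-specific conditions in 384-well plates with biotinylated degenerate peptide sub-libraries. Each sub-library fixed one residue at one position around a central Ser/Thr. Incubations lasted 90 min with peptides at 50 μM and 50 μM ATP spiked with γ-32P-ATP, after which spots on streptavidin membranes were phosphorimaged and quantified by densitometry. Relative sub-library phosphorylation is a ratio to the mean residue at that position.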

AKT1, construct: aa109-end, sequence (P31749 109-480, looked up): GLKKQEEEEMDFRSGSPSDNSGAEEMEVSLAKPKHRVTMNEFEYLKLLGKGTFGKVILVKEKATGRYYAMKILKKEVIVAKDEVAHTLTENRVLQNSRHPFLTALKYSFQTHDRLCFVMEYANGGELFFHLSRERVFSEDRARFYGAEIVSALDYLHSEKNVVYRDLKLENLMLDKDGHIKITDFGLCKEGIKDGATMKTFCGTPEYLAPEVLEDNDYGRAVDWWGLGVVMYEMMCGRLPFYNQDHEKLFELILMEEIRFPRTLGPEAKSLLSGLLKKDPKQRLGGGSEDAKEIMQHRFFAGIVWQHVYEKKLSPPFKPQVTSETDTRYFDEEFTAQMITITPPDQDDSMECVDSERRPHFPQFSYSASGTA
AAK1, construct: aa27-365, sequence (Q2M2I8 27-365, looked up): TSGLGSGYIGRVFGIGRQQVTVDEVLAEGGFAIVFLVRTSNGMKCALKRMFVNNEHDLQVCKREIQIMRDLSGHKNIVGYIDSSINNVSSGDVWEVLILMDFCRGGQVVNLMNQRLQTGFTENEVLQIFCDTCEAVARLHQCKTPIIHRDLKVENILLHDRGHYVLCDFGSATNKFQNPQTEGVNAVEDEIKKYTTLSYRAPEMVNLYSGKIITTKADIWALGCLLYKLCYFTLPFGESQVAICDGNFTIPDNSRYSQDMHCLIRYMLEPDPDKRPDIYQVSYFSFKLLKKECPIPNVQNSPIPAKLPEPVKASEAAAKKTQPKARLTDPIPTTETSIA
ACVR1, construct: aa175-end, sequence (Q04771 175-509, looked up): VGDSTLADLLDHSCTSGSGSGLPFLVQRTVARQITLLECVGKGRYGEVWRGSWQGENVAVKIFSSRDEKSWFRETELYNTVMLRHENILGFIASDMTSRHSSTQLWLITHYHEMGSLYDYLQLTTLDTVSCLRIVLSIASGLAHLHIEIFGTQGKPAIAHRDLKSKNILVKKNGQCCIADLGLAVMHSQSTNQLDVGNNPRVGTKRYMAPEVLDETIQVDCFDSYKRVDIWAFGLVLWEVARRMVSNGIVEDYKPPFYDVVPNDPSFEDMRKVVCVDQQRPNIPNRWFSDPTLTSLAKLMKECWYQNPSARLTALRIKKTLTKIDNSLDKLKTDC
ACVR2B, construct: aa161-end, sequence (Q13705 161-512, looked up): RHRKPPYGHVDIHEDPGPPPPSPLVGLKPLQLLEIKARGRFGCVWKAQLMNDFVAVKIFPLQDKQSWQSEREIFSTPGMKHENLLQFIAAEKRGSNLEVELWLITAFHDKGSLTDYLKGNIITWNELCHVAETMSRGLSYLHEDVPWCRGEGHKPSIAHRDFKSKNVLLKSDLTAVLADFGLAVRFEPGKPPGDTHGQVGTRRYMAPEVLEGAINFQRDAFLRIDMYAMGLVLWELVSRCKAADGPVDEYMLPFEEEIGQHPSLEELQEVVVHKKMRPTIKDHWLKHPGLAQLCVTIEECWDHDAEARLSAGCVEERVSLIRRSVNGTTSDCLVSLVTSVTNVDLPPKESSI

AAK1, construct: aa27-365 (from UniProt Q2M2I8)
relative phosphorylation
Conditions | at +1 | at +2 | at +3 | at +4 | at -1 | at -2 | at -3 | at -4 | at -5
A fixed | 0.53 | 1.27 | 0.989 | 1.1 | 0.654 | 0.915 | 1.9 | 1.2 | 0.482
D fixed | 0.174 | 0.939 | 0.688 | 0.662 | 0.274 | 1.37 | 0.462 | 0.565 | 0.273
E fixed | 0.167 | 0.89 | 0.631 | 0.778 | 0.248 | 1.08 | 0.629 | 0.951 | 0.26
F fixed | 0.219 | 0.826 | 0.731 | 0.89 | 0.926 | 0.571 | 0.828 | 0.883 | 0.722
G fixed | 12.3 | 1.27 | 1.57 | 1.19 | 1.2 | 0.48 | 0.87 | 1.09 | 0.416
H fixed | 0.272 | 1.05 | 1.15 | 0.951 | 1.17 | 0.963 | 0.676 | 0.874 | 0.564
I fixed | 0.173 | 0.629 | 0.659 | 0.706 | 0.739 | 0.642 | 1.02 | 1.06 | 2.64
K fixed | 0.33 | 0.98 | 1.26 | 1.41 | 2.09 | 0.998 | 0.879 | 1.38 | 0.445
L fixed | 0.222 | 0.703 | 0.831 | 0.783 | 1.11 | 0.968 | 0.896 | 1.26 | 1.69
M fixed | 0.21 | 0.817 | 0.743 | 0.789 | 0.941 | 1.98 | 1.33 | 1.18 | 1.47
N fixed | 0.289 | 1.42 | 1.25 | 1.01 | 0.737 | 1.37 | 0.989 | 0.73 | 0.468
P fixed | 0.787 | 0.896 | 1.16 | 1.07 | 1.93 | 0.385 | 1.84 | 0.908 | 1.22
Q fixed | 0.235 | 1.31 | 1.06 | 1.08 | 0.675 | 2.58 | 1.18 | 1.07 | 0.952
R fixed | 0.423 | 1.32 | 1.53 | 1.58 | 1.57 | 0.943 | 0.987 | 1.22 | 1.62
V fixed | 0.182 | 0.922 | 1.04 | 0.718 | 0.666 | 0.578 | 1.09 | 1.05 | 1.62
W fixed | 0.276 | 0.973 | 0.817 | 1.4 | 0.748 | 0.492 | 0.722 | 0.686 | 0.535
Y fixed | 0.243 | 0.78 | 0.905 | 0.886 | 1.32 | 0.678 | 0.699 | 0.908 | 1.62
pThr fixed | 0.209 | 0.696 | 0.57 | 0.427 | 0.206 | 0.356 | 0.514 | 0.564 | 0.342
pTyr fixed | 0.171 | 0.697 | 0.61 | 0.46 | 0.303 | 0.826 | 0.466 | 0.576 | 1.04

ACVR1, construct: aa175-end (from UniProt Q04771)
relative phosphorylation
Conditions | at +1 | at +2 | at +3 | at +4 | at -1 | at -2 | at -3 | at -4 | at -5
A fixed | 0.713 | 0.98 | 0.912 | 0.81 | 0.74 | 0.525 | 0.897 | 0.886 | 1.13
D fixed | 1.5 | 1.84 | 1.47 | 1.69 | 1.48 | 1.93 | 1.51 | 1.64 | 1.22
E fixed | 4.11 | 1.99 | 1.81 | 1.76 | 1.68 | 6.6 | 1.78 | 1.44 | 1.15
F fixed | 0.752 | 0.713 | 0.962 | 1.01 | 0.857 | 0.467 | 0.944 | 0.88 | 1.08
G fixed | 0.737 | 1.39 | 0.909 | 0.972 | 0.515 | 0.715 | 1.22 | 1.15 | 1.12
H fixed | 0.787 | 1.15 | 0.932 | 0.918 | 1.04 | 0.55 | 1.03 | 0.953 | 1.03
I fixed | 0.87 | 0.581 | 0.762 | 0.804 | 0.985 | 0.511 | 0.885 | 0.946 | 0.896
K fixed | 0.382 | 0.709 | 0.53 | 0.676 | 0.572 | 0.406 | 0.651 | 0.77 | 0.938
L fixed | 0.728 | 0.616 | 0.856 | 0.738 | 1.35 | 0.678 | 0.899 | 0.958 | 0.861
M fixed | 0.795 | 0.683 | 0.97 | 0.955 | 1.62 | 0.89 | 1.02 | 0.94 | 0.964
N fixed | 0.771 | 0.927 | 1.04 | 1.01 | 1 | 0.714 | 1.12 | 0.803 | 0.948
P fixed | 0.375 | 1.02 | 1.1 | 0.976 | 0.49 | 0.404 | 0.937 | 0.872 | 0.91
Q fixed | 0.726 | 0.876 | 0.857 | 1.01 | 0.846 | 0.739 | 0.775 | 0.791 | 0.739
R fixed | 0.453 | 0.868 | 0.647 | 0.714 | 0.673 | 0.531 | 0.781 | 0.769 | 0.902
V fixed | 1.19 | 0.638 | 0.847 | 0.783 | 0.975 | 0.462 | 0.732 | 0.834 | 0.954
W fixed | 1.04 | 0.82 | 1.26 | 1.26 | 0.903 | 0.458 | 0.864 | 1.23 | 1.18
Y fixed | 1.07 | 1.19 | 1.14 | 0.927 | 1.27 | 0.429 | 0.972 | 1.15 | 0.997
pThr fixed | 2.36 | 1.57 | 1.05 | 1.59 | 1.04 | 1.8 | 1.41 | 1.05 | 1.06
pTyr fixed | 2.25 | 1.4 | 1.32 | 1.25 | 1.37 | 0.678 | 1.37 | 1.22 | 1.17

ACVR2B, construct: aa161-end (from UniProt Q13705)
relative phosphorylation
Conditions | at +1 | at +2 | at +3 | at +4 | at -1 | at -2 | at -3 | at -4 | at -5
A fixed | 0.595 | 1.11 | 0.975 | 1.11 | 0.803 | 0.672 | 0.922 | 0.979 | 0.962
D fixed | 2.06 | 1.33 | 0.992 | 1.24 | 1.46 | 3.9 | 1.99 | 1.75 | 1.81
E fixed | 3.92 | 1.1 | 1.26 | 1.18 | 1.31 | 5.09 | 2 | 1.49 | 1.53
F fixed | 0.786 | 0.848 | 0.958 | 0.819 | 1.01 | 0.514 | 0.898 | 1.06 | 1.03
G fixed | 0.531 | 1.27 | 1.09 | 0.987 | 0.57 | 0.472 | 0.941 | 1.07 | 0.878
H fixed | 0.823 | 0.877 | 0.867 | 0.955 | 1.01 | 0.664 | 0.928 | 1.04 | 0.88
I fixed | 0.875 | 0.985 | 1 | 0.924 | 0.746 | 0.396 | 0.77 | 0.78 | 0.752
K fixed | 0.372 | 0.75 | 0.617 | 0.767 | 0.554 | 0.403 | 0.722 | 0.644 | 0.734
L fixed | 0.752 | 0.69 | 1.17 | 0.901 | 1.38 | 0.532 | 0.725 | 0.88 | 0.8
M fixed | 0.917 | 0.868 | 1.03 | 0.887 | 1.37 | 0.458 | 0.802 | 0.853 | 0.878
N fixed | 0.742 | 0.933 | 0.887 | 0.905 | 0.948 | 0.876 | 0.987 | 0.971 | 1.01
P fixed | 0.316 | 1.41 | 1.18 | 1.22 | 0.595 | 0.335 | 0.784 | 0.913 | 0.905
Q fixed | 1.02 | 0.859 | 0.904 | 0.994 | 0.81 | 0.659 | 0.947 | 0.838 | 0.847
R fixed | 0.374 | 0.826 | 0.769 | 0.827 | 0.531 | 0.45 | 0.621 | 0.626 | 0.802
V fixed | 1.06 | 1.13 | 0.98 | 0.941 | 1.04 | 0.534 | 0.892 | 0.883 | 0.924
W fixed | 0.969 | 0.954 | 1.13 | 1.33 | 1.56 | 0.512 | 1.11 | 1.2 | 1.23
Y fixed | 0.886 | 1.07 | 1.19 | 0.998 | 1.31 | 0.527 | 0.963 | 1.03 | 1.03
pThr fixed | 4.33 | 1.49 | 1.08 | 1.29 | 1.86 | 1.18 | 1.78 | 1.34 | 1.29
pTyr fixed | 2.48 | 1.11 | 1.19 | 1.08 | 1.85 | 0.886 | 2.34 | 1.45 | 1.26

AKT1, construct: aa109-end (from UniProt P31749)
relative phosphorylation
Conditions | at +1 | at +2 | at +3 | at +4 | at -1 | at -2 | at -3 | at -4 | at -5
A fixed | 0.492 | 0.908 | 0.834 | 0.83 | 0.739 | 0.942 | 0.543 | 0.894 | 0.938
D fixed | 0.294 | 0.547 | 0.499 | 0.752 | 0.726 | 0.143 | 0.165 | 0.567 | 0.639
E fixed | 0.292 | 0.394 | 0.537 | 0.53 | 0.387 | 0.132 | 0.164 | 0.703 | 0.639
F fixed | 2.31 | 0.76 | 1.03 | 0.662 | 0.832 | 0.504 | 0.271 | 0.734 | 0.929
G fixed | 0.657 | 1.07 | 1.21 | 1.01 | 1.32 | 0.592 | 0.453 | 1.03 | 1.01
H fixed | 0.791 | 1.56 | 1.3 | 1.13 | 1.18 | 0.839 | 0.837 | 1.02 | 1.11
I fixed | 1.7 | 1.02 | 0.838 | 0.646 | 0.337 | 0.414 | 0.245 | 0.66 | 0.74
K fixed | 0.854 | 1.3 | 1.56 | 1.95 | 1.78 | 2.18 | 2.33 | 1.85 | 1.61
L fixed | 1.22 | 1.13 | 0.826 | 0.786 | 0.978 | 1.02 | 0.295 | 0.75 | 0.789
M fixed | 1.69 | 0.787 | 0.839 | 0.773 | 1.13 | 0.498 | 0.282 | 0.9 | 0.859
N fixed | 0.924 | 1.08 | 1.06 | 1.1 | 1.44 | 0.444 | 0.332 | 0.804 | 0.795
P fixed | 0.36 | 0.733 | 0.833 | 1.57 | 1.04 | 0.303 | 0.507 | 0.91 | 1.03
Q fixed | 1.08 | 0.903 | 0.964 | 1.25 | 1.01 | 0.546 | 0.56 | 0.91 | 0.835
R fixed | 0.952 | 1.95 | 1.94 | 1.84 | 1.75 | 7.28 | 9.07 | 2.75 | 2.58
V fixed | 1.4 | 1.11 | 0.782 | 0.702 | 0.449 | 0.44 | 0.238 | 0.757 | 0.727
W fixed | 1.12 | 0.831 | 0.963 | 0.884 | 0.663 | 0.332 | 0.352 | 0.972 | 0.893
Y fixed | 0.853 | 0.913 | 0.979 | 0.593 | 1.24 | 0.392 | 0.355 | 0.785 | 0.877
pThr fixed | 0.455 | 0.493 | 0.573 | 0.668 | 0.301 | 0.348 | 0.322 | 0.767 | 0.724
pTyr fixed | 0.575 | 0.645 | 0.577 | 0.447 | 0.9 | 0.273 | 0.299 | 0.692 | 0.728

From the supplement of paper PMC9876800
